{
  "source": "patent US20210087265A1",
  "about": "(PROGASTRINE ET CANCERS S R L, published 2021)",
  "binders": {"B1": {"name": "mAb19 (antibody, V domains shown)", "VH": "DVQLQESGPGLVKPSQSLSLTCTVTGYSITSDYAWNWIRQFPGNKLEWMGYISFSGYTSYNPSLKSRISVTRDTSRNQFFLQLTSVTTEDTATYYCAREVNYGDSYHFDYWGQGTIVTVSS", "VL": "QLALTQSSSASFSLGASAKLTCTLSSQHRTYTIEWYQQQSLKPPKYVMEVKKDGSHSTGHGIPDRFSGSSSGADRYLSISNIQPEDEAIYICGVGDAIKGQSVFVFGGGTKVTVL", "notes": "Murine monoclonal antibody from a hybridoma; also called hybridoma 1B3B4F11"}, "B2": {"name": "mAb16 (antibody, V domains shown)", "VH": "QVQLQQSGAELVKPGASVKLSCKASGYTFTSYYMYWVKQRPGQGLEWIGEINPSNGGTNFNEKFKSKATLTVDKSSSTAYMQLSSLTSEDSAVYYCTRGGYYPFDYWGQGTTLTVSS", "VL": "not shown", "notes": "Murine monoclonal antibody from a hybridoma; also called hybridoma 1E9D9B6"}, "B3": {"name": "mAb4 (antibody, V domains shown)", "VH": "QVQLQQSGAELMKPGASVKISCKATGYTFSSSWIEWLKQRPGHGLEWIGEFLPGSGSTDYNEKFKGKATFTADTSSDTAYMLLSSLTSEDSAVYYCATDGNYDWFAYWGQGTLVTVSA", "VL": "DLVMTQTPLSLPVSLGDQASISCRSSQSLVHSSGVTYLHWYLQKPGQSPKLLIYKVSNRFSGVPDRFSGSGSGTDFTLKISRVEAEDLGVYFCSQSTHVPPTFGSGTKLEIK", "notes": "Murine monoclonal antibody from a hybridoma; also called hybridoma 20D2C3G2"}, "B4": {"name": "mAb3 (antibody, V domains shown)", "VH": "EVQLQQSGTVLARPGASVKMSCKASGYIFTSYWVHWVKQRPGQGLEWIGGFYPGNSDSRYNQKFKGKATLTAVTSASTAYMDLSSLTNEDSAVYFCTRRDSPQYWGQGTTLTVSS", "VL": "DVLMTQTPLSLPVSLGDQASISCRSSQSIVHSNGNTYLEWYLQKPGQSPKLLIYKVSNRFSGVPDRFSGSGSGTDFTLKISRLEAEDLGVYYCFQGSHVPFTFGGGTKLEIK", "notes": "Murine monoclonal antibody from a hybridoma; also called hybridoma 6B5B11C10"}, "B5": {"name": "mAb13 (antibody, V domains shown)", "VH": "EVQLVESGGGLVQPGGSLKLSCAASGFIFSSYGMSWVRQSPDRRLELVASINTFGDRTYYPDSVKGRFTISRDNAKNTLYLQMTSLKSEDTAIYYCARGTGTYWGQGTTLTVSS", "VL": "not shown", "notes": "Murine monoclonal antibody from a hybridoma; also called hybridoma 2C6C3C7"}},
  "data": [
    {"target": "T1, human progastrin (human, UniProt P01350 22-101)", "T1 construct": "80-residue progastrin, i.e. preprogastrin (AAB19304.1) without its 21-residue signal peptide; also called hPG; PG", "T1 sequence": "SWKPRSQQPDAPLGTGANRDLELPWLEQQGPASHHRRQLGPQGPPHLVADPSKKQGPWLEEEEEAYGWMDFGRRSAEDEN", "experiment": "epitope mapping (method not described)", "values": [
      {"binder": "B1", "binding result": "binds"},
      {"binder": "B2", "binding result": "binds"},
      {"binder": "B3", "binding result": "binds"},
      {"binder": "B4", "binding result": "binds"},
      {"binder": "B5", "binding result": "binds"}
    ]}
  ]
}
